The results in this text go back to the DeepSol protein solubility set.

A short description of this series: soluble on expression in E. coli; label from the status in PepcDB or PDB records.
“MGSSHHHHHHSSGLVPRGSHMNVKKFPEGFLWGAATSSYQIEGAWNEDGKGESIWDRFTRIPGKIKNGDSGDVACDHYHRYEQDLDLMRQLGLKTYRFSIAWARIQPDSSRQINQRGLDFYRRLVEGLHKRDILPMATLYHWDLPQWVEDEGGWLSRESASRFAEYTHALVAALGDQIPLWVTHNEPMVTVWAGYHMGLFAPGLKDPTLGGRVAHHLLLSHGQALQAFRALSPAGSQMGITLNFNTIYPVSAEPADVEAARRMHSFQNELFLEPLIRGQYNQATLMAYPNLPEFIAPEDMQTISAPIDFLGVNYYNPMRVKSSPQPPGIEVVQVESPVTAMGWEIAPEGLYDLLMGITRTYGKLPIYITENGAAFDDQPDQSGQVNDPQRVGYFQGHIGAARRALADGVDLRGYYAWSLLDNFEWAEGYSKRFGIIYVDFETQQRTLKQSAQWYRDVIANNGLED”: the “soluble on expression in E. coli” value is listed as “soluble”.
Consider “SLYENDYVKKTQVWPSGGQMTVKNLSANYIDGGNTVLENISFSLSPGQRVGLLGRTGSGKSTLLSAFLRLLSTQGDIQIDGVSWQTIPLEKWRKAFGVIPQKVFIFSGSIRKNLDPYGKWSDEELLKVTEEVGLKLIIDQFPGQLDFVLLDGGCVLSHGHKQLVCLARSVLSKAKILLLDEPSAHLDPITFQIIRKTLKHAFADCTVILSEARLEAMLECDRFLVIEDNTVRQYDSIQKLVNEKSDFKQAISHSD”, for which the “soluble on expression in E. coli” value was “soluble”.
In the case of “MTIFEKNVIEFVTVAAEFCAFLERAEHMKRKAFVDTSLKILPLLYLKASLLPKCETIGDEAPETYVTEEIYEILRINLAGLMGEKDDYLDVFVQDMVYSDQPIKKSVSEDLADIYQDIKDFIFVFQLGLNETMNDSLAICQENFGLLWGQKLVNTLRALHDVKYLEHHHHHH”, the “soluble on expression in E. coli” value was “soluble”.
For “MSLNSSFFKMMEKRSYNRFNQEQKAAITYDMKKHLRIIAGAGSGKTQTICAKAVYLMTQKQVDEERILMITFTRNAANELKKRVDNFSQRKTAVHIGTFHSIFFRIYNEICRKFPEVAMQGIQGDFSKDTAQKVNAVLQQLIRKYNLYIFDQYGEKTIASRLDYWQNMNLSVEEMVQLVKEKYDSIDKNARQPISERLYGLLTELQEQKRSQQLLEFNDVLQNLKSALENEEIQHYIGQKYDYLFIDEFQDTNPLQWEIVKRMTKENRIKLIVVGDDDQSIYGFRGSEPAYIKNFEKEYPTKTLFLLTNYRSRAAIVQGANRLISYNKNDRIPKAMIPAQKEAGVMEAYLFSDTKAESQWLIKQIQTFIQKNGKYKESIILYRSASQTQQLVQSLLKTNIPFVLEADSPYEGIFGIKSFQHFYQKIVHWQTALNLQKKNQAYQQLLRQLMADCYLKKSECDQYFSPKYQNIAVADYILSISPNLKSKSAEIREFEEALRKTDQHQEIYSLVQSYLHLPRIAKEIDQSDQEWIREEVKQHATFRRLQALSQETQATAKELKTRLIAYRQGKLDALCIQSIHKSKGLSYRNVFLIGCNEGSLPYNGATEKKVIDFNEIKAEPVTTIEEERRLFYVAMTRARNRLYLCVPQMKNSRKLKVSRFIKETGSRVKKGEGHHHHHH”, the “soluble on expression in E. coli” value was “soluble”.
Next, “KDWEKVVYGFATLYICSFVLDQVVNSARQSVQFFIISNKYEEIGRHINEYPHRGVTIINATGFYTGREVKMMFVLAKKRESTIIFRLIKDIDPNAFVSQSAVIGVYGEGFDHIKVK”: “not soluble”.
As to “MATGDGKSVMVVGVDDSEQSTYALEWTLDRFFAPYAPNYPFKLFIVHAKPNAVSAVGLAGPGTAEVVPYVDADLKHTAAKVVEKAKAICQSRSVHGAVIEVFEGDARNILCEVVDKHHASILVVGSHGYGAIKRAVLGSTSDYCAHHAHCSVMIVKKPKIKV”, the “soluble on expression in E. coli” value is “soluble”.
As to “MGSDKIHHHHHHENLYFQGMLIEIPNVFSKQEVSHLREQLDARRWIDGNQTSGAMATTRKRNQQLDKDDPVAVALGQQIMDRLLAHPQFVSAALPLQFYPPLFNRYQGGETFGYHIDNAIRSTPDGMIRTDLSATLFLSEPENYQGGELVIQDTYGQQSIKLSAGSLVLYPSSSLHQVTPVLSGERTAAFMWLQSMVRDEGQRRLLFQLDQSIQSLTAQTAAEQELFNLSGVYHNLLRRWSEL”, the “soluble on expression in E. coli” value is “soluble”.
As for “MFAHPANTSAASDNVSKAKLLKMLNAERKENASKDQLIESLKNQLASGGSQKIMEFYRTSVEDLQTKVMRQETIIMEQSKTIEMLSIERSKSVKVHEDQINEMQEVMDKKVKQLEENYEERLKESGNESTASFDKESRDDSLEDFVEVSINEILETAESKRKLKERINHMETHCMTMLKETMEDNKLYSAQLKDQKKQFEVLQNEKAQWEKKEIQQTMELENLRLRLRDIVSLENLIL”, the entry is “not soluble”; as for “MAGPSWRHIRAEGLDCSYTVLFGKAEADEIFQELEKEVEYFTGALARVQVFGKWHSVPRKQATYGDAGLTYTFSGLTLSPKPWIPVLERIRDHVSGVTGQTFNFVLINRYKDGCDHIGEHRDDERELAPGSPIASVSFGACRDFVFRHKDSRGKSPSRRVAVVRLPLAHGSLLMMNHPTNTHWYHSLPVRKKVLAPRVNLTFRKILLTKKLEHHHHHH”, “soluble”; as for “MSPAQSKPVESMTVFNTEEVDTKKQPMFFGKPLGVQRYDSYKYPVFDKLTQQQLGYFWRPEEVSLQKDRGDYQQLTPEQKHIFTSNLKYQIMLDSVQGRAPGMAFAPYCSLPELEGCINVWQFMEMIHSRSYTYIIKNVYSDPSEVFDTIIKDTNILQRAESVTKSYDDFVNDAHEYDSGNAWKFAREGHPAGTLDRRELKRKLYRAIANVNILEGIRFYVSFACSFAFGENKLMEGSAKILSLISRDESQHLVITQQILKKWADGDDPEMQEIAKEEKSFVKDMFRNTVNEEKAWADYLFKEGSMIGLNARLLNNYVEWIANRRMKAIGLDPIYDQPLRNNPLPWTEHWLNSKGQQNAPQETEIESYVIGGIKQDVKGDSFAGFKL”, “not soluble”.
Next, “MGSDKIHHHHHHMIDAFVRIGPLMDPASYPQWAQQLIEDCRESKRRVVEHEFYARLRDGQLKQSTIRQYLIGGWPVVEQFSLYMAHNLTKTRYGRHQGEDMARRWLMRNIRVELNHADYWVNWCQAHGVHLHELQAQEVPPELNGLNDWCWRVCATENLAISMAATNYAIEGATGEWSAVVCSTDTYAQGFPEEGRKRAMKWLKMHAQYDDAHPWEALEIICTLAGENPTLGLRTELRRAICKSYDCMFLFLERCMQLEGRQQGRMRPALAAG”: “not soluble”; “MADDLGDEWWTQGDNSDVPEVEEETEHAEEKQPIKSTPKKRKVEKQIPDATKKKKATVKKECFITQERSEEKPDNESNKNKKRRKKKKTITDVLTSSKPVPGSPVDLVSLLKTYHSQTRSVIEQEELTLQDSCFLSCNDLTHSLSSYLKEVCPKWAKMQKQHTQTSSVVLLIVCGSALRTIDLIKQLVTFKGQAKVLKLFAKHIKVEEQIKSLSKGVTHIAVGTPGRICALLEKEGLTVQGLRYLVLDWNYRDQKQRRMVDVPEVKGDLLKMMDQGLIQSCREGTVKIGLF”: “not soluble”; “GPGSMERVRIRYVLTGACPPTYSGRVVHDFVALKQPNGCDTTIEMVKERFRSNWPADVKELAESISESGIRVLKAGRVLNDHDSLMRHLTASERKACLVSGDTKVGDTNDEMQKPSVLMHMVIQGNRAPLENSRKEKHKVSSTPEGGNSNEGHEMKKDSCCCVM”: “soluble”.
For the sequence “MKPNIHPEYRTVVFHDTSVDEYFKIGSTIKTDREIELDGVTYPYVTIDVSSKSHPFYTGKLRTVASEGNVARFTQRFGRFVSTKKGA”, the “soluble on expression in E. coli” value is recorded as “soluble”.
Turning to “MSLTPVLDKIDSDVSAATDRLLELLRIPSISTDPAYKADCDAAADWLVKDLNSIGIKAEKRETPGHPMVVGHVGEENTKGPHLLFYGHYDVQPVDPLNLWNTPPFEPQLEETPNGTVIRGRGASDDKGQLMTFVEACRAWQAVHGTLPCRITFFFEGEEESGSPSLIPFLEAAKEELSADIALICDTSMVARGVPSVASQLRGMMKDEFTLIGPKIDLHSGHYGGPGLNPLREISHIIASFHDPDTGAVAVEGFYEGVPEVPADILRQWEGCGFDEKDYLSNAGYTEAHGEKKYSTLEQQWARPTLEINGLWGGYQGAGTKTVIPSEAHCKITCRLVGDMDPADLRQKIRKHVEDRLPTDCTVKWDLDLDGAPAYVIDTTRPEFEAARGALTEEWNREAVFSGMGGSIPVAGYFKSILGMDAMLIGFANEDDAIHSPNEKYDLESFHKGIRSWARVLDALSKA”, the “soluble on expression in E. coli” value is listed as “soluble”.
